Test results from patent publication US20250026850A1 (TRISHULA THERAPEUTICS, published 2025).
Where a chain is given by its changes, count along the chain named.

B1: 27587 (antibody, V domains shown)
VH: QVQLVQSGAEVKKPGSSVKVSCKASGGTFSSYAISWVRQAPGQGLEWMGSIIPIFGTANYAQKFQGRVTITADESTSTAYMELSSLRSEDTAVYYCARESGGYRDHKLDVWGQGTMVTVSS
VL: EIVLTQSPATLSLSPGERATLSCRASQSVSSYLAWYQQKPGQAPRLLIYDASKRATGIPARFSGSGSGTDFTLTISSLEPEDFAVYYCQQDVLWPLTFGGGTKVEIKR
B2: 27597 (antibody, V domains shown)
VH: QVQLVQSGAEVKKPGSSVKVSCKASGGTFSSYAISWVRQAPGQGLEWMGSIIPIFGTANYAQKFQGRVTITADESTSTAYMELSSLRSEDTAVYYCAREGRGYDSSRYYKFWFDPWGQGTLVTVSS
VL: B1 VL with K53N, D91F, L96R
B3: 27571 (antibody, V domains shown)
VH: B1 VH with V20A, Q65R, A79T, K107R
VL: EIVMTQSPATLSVSPGERATLSCRASQSVGSNLAWYQQKPGQAPRLLIYGASTRATGIPARFSGSGSGTEFTLTISSLQSEDFAVYYCQQYLIWPLTFGGGTKVEIK
B4: 27596 (antibody, V domains shown)
VH: B1 VH with S50G, E99D, S100P, G101L, Y103I, D105K, K107W, L108F, V110P, M116L
VL: B1 VL with L4M, K53N, D91H, V92T, L93V, L96I
B5: 27577 (antibody, V domains shown)
VH: QVQLVQSGAEVKKPGSSVKVSCKASGGAFSSYAIGWVRQAPGQGLEWMGGIIPTFGTANYAQKFQGRVTITADESTSTAYMELSSLRSEDTAVYYCARDGGGYQHHYFDLWGRGTLVTVSS
VL: EIVMTQSPATLSVSPGERATLSCRASQSVGSNLAWYQQKPGQAPRLLIYGASTRATGIPARFSGSGSGTEFTLTISSLQSEDFAVYYCQQLTKWPLTFGGGTKVEIKR
B6: 27590 (antibody, V domains shown)
VH: QVQLVQSGAEVKKPGSSVKVSCKASGGTFSNYAISWVRQAPGQGLEWMGGIIPIFGTANYAQKFQGRVTITADESTSTAYMELSSLRSEDTAVYYCARGPTVTATTSIGTHNWFDPWGQGTLVTVSS
VL: EIVLTQSPATLSLSPGERATLSCRASQSVSSYLAWYQQKPGQAPRLLIYDASNRATGIPARFSGSGSGTDFTLTISSLEPEDFAVYYCQQRNFYPPTFGGGTKVEIK
B7: 27588 (antibody, V domains shown)
VH: QVQLVQSGAEVKKPGSSVKVSCKASGGTFSNYAISWVRQAPGQGLEWMGGIIPIFGTANYAQKFQGRVTITADESTSTAYMELSSLRSEDTAVYYCARAKRGYDSYGGVYFDYWGQGTLVTVSS
VL: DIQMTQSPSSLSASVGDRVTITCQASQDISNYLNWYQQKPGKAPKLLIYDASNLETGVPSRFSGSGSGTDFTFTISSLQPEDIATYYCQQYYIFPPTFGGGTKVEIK
B8: 27550 (antibody, V domains shown)
VH: EVQLVESGGGLVKPGGSLRLSCAASGFTFSSYSMNWVRQAPGKGLEWVSSISSSSSYIYYADSVKGRFTISRDNAKNSLYLQMNSLRAEDTAVYYCARERRGSLALGMDVWGQGTLVTVSS
VL: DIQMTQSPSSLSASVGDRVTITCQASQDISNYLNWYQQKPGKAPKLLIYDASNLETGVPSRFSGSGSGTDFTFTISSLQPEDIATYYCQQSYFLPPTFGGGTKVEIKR
B9: 31896 (antibody, V domains shown)
VH: QVQLVQSGAEVKKPGSSVKVSCKASGGTFSKLAISWVRQAPGQGLEWMGGIGFGTANYAQKFQGRVTITADESASTAYMELSSLRSEDTAVYYCARGGAKYASTHGMDVWGQGTTVTVSS
VL: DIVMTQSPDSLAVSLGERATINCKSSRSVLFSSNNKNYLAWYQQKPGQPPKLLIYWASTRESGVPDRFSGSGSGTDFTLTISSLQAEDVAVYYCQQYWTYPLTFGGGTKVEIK
B10: 31915 (antibody, V domains shown)
VH: B9 VH with K31S, A33P, A74T, T104K, H105W
VL: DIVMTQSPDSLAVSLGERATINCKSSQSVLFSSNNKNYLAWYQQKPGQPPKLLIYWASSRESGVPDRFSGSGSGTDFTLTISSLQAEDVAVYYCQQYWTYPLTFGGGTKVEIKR
B11: 29871 (antibody, V domains shown)
VH: QVQLVQSGAEVKKPGASVKVSCKASGYTFQSYYMHWVRQAPGQGLEWMGKINPSGGSTWYAQKFQGRVTMTRDTSTSTVYMELSSLRSEDTAVYYCARGKREGGTEYLRHWGQGTLVTVSS
VL: EIVLTQSPGTLSLSPGERATLSCRASQSVSSSYLAWYQQKPGQAPRLLIYGASSRATGIPDRFSGSGSGTDFTLTISRLEPEDFAVYYCQQYHSYITFGGGTKVEIK
B12: 31421 (antibody, V domains shown)
VH: B11 VH with Q30F, H35Y, K50V, S54L, S57G, W59S
VL: B11 VL with R24K, Q27E, G51Y, S94R, Y95R
B13: 27589 (antibody, V domains shown)
VH: QVQLVQSGAEVKKPGSSVKVSCKASGGTFSSYAISWVRQAPGQGLEWMGGIIPIFGTANYAQKFQGRVTITADESTSTAYMELSSLRSEDTAVYYCARDSGYHRHYSDYWGQGTLVTVSS
VL: DIQMTQSPSTLSASVGDRVTITCRASQSISSWLAWYQQKPGKAPKLLIYKASSLESGVPSRFSGSGSGTEFTLTISSLQPDDFATYYCQQYGLFPITFGGGTKVEIKR

Molecular target: T1, cynomolgus macaque (Macaca fascicularis) CD39 on cells (cynomolgus macaque (Macaca fascicularis), UniProt P49961 7-510 (human entry))
T1 construct: CHO cells engineered to express cyno CD39, or primary cyno B cells and monocytes; also called cyno CD39; cCD39
T1 chain: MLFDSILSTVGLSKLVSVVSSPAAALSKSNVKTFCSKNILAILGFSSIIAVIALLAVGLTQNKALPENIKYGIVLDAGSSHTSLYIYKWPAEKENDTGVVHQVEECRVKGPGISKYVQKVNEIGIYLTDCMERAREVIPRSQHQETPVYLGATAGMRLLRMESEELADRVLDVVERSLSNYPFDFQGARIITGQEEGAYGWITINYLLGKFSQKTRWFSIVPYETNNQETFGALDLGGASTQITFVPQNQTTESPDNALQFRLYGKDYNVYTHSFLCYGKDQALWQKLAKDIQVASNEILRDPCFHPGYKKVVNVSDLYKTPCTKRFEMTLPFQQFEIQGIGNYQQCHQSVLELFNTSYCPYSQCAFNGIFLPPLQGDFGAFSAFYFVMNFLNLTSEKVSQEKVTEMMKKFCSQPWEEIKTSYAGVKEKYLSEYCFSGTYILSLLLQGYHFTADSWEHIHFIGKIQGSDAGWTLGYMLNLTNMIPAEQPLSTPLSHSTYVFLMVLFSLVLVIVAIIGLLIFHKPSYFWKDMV
Assay: flow cytometry, 100 nM IgG, cCD39-CHO cells; MFI ratio to parental CHO
Description: (§1) 100 nanomolar IgGs (each antibody is indicated as a unique clone number in the FIG.) were incubated at […] 30 minutes on ice in phosphate buffered saline (PBS) with parental CHO cells or CHO cells engineered to express either human or cynomolgus macaque (Macaca fascicularis) CD39 (CHO CD39 cells). Cells were then washed with ice cold PBS and incubated with a fluorescently labeled goat-anti-human IgG for 20 minutes on ice. Cells were washed and resuspended in ice cold PBS prior to analysis by flow cytrometry.

First: B1
Second: B2
The “Cell Binding (FOB)” value of the first is higher: 1400 FOB for the first, 908 FOB for the second.

Compared with B3, B4 is lower in “Cell Binding (FOB)” value: 1610 FOB for the first, 257 FOB for the second.

First: B5
Second: B6
The “Cell Binding (FOB)” value of the first is higher: 339 FOB for the first, 44 FOB for the second.

Compared with B7, B8 is higher in “Cell Binding (FOB)” value: 14 FOB for the first, 2870 FOB for the second.

Compared with B9, B10 is higher in “Cell Binding (FOB)” value: 4540 FOB for the first, 4580 FOB for the second.

First: B11
Second: B12
The “Cell Binding (FOB)” value of the first is higher: 3350 FOB for the first, 3050 FOB for the second.

In the case of B13, the “Cell Binding (FOB)” value is reported as 531 FOB.

Each binder was assayed against T2, human CD39 on cells (human, UniProt P49961 1-510) (assay: flow cytometry, 100 nM IgG, hCD39-CHO cells; MFI ratio to parental CHO).
T2 construct: One molecule for all cells that carry human CD39; the cell is named under assay; also called hCD39; cellular CD39
T2 sequence: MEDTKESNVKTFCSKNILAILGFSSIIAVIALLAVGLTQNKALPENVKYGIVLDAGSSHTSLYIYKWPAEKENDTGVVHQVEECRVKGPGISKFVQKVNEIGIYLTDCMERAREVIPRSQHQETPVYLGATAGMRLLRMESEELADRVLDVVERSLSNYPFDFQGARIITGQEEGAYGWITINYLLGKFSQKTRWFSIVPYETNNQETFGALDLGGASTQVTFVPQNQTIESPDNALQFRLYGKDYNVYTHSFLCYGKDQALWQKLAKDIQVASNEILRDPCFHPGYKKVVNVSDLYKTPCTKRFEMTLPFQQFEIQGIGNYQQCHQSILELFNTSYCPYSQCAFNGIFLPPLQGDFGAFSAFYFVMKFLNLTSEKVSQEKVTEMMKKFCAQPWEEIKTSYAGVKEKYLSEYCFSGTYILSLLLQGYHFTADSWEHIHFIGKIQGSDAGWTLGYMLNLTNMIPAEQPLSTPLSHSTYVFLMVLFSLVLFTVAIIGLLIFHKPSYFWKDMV
Description: as §1

First: B1
Second: B2
The “Cell Binding (FOB)” value of the first is higher: 1450 FOB for the first, 799 FOB for the second.

Going from B3 to B4, the “Cell Binding (FOB)” value falls from 1400 FOB to 252 FOB.

First: B5
Second: B6
The “Cell Binding (FOB)” value of the first is higher: 390 FOB for the first, 33 FOB for the second.

Compared with B7, B8 is higher in “Cell Binding (FOB)” value: 10 FOB for the first, 2030 FOB for the second.

Going from B9 to B10, the “Cell Binding (FOB)” value rises from 1040 FOB to 1090 FOB.

First: B11
Second: B12
The “Cell Binding (FOB)” value of the first is lower: 451 FOB for the first, 1080 FOB for the second.

B13 was tested, and the “Cell Binding (FOB)” value was 311 FOB.

What follows are binders tested against T3, rhCD39-ECD-His (R&D Systems) (human, UniProt P49961 38-478) (assay: BLI (Octet), IgG on anti-human Fc sensor, rhCD39-ECD-His 10-300 nM, 1:1 fit).
T3 construct: Bought protein; that entry runs on through the C-terminal transmembrane and cytoplasmic residues; also called recombinant human CD39 extracellular domain; soluble recombinant human CD39 (ENTDP1) ECD; not shown: His tag
T3 sequence: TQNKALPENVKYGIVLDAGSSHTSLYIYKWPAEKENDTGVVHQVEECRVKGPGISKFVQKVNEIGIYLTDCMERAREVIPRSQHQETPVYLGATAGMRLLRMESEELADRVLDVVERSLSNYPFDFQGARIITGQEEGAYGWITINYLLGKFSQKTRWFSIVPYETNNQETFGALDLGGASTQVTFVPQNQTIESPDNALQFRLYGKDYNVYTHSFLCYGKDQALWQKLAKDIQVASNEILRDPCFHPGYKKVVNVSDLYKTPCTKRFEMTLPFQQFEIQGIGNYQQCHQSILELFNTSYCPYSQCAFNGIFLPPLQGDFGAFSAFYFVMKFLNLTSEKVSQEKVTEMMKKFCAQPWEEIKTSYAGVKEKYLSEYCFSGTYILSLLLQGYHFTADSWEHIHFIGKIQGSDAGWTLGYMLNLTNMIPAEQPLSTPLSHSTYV
Description: The kinetic data was globally fit with a simple 1:1 Langmuir binding model to yield on-rate (kon) and off-rate (koff) values. The equilibrium dissociation constants (KD) were calculated from the kon and koff values.
Binding kinetics were measured using the Octet Red96 system (ForteBio) at 25° C. in running buffer (1× Pall ForteBio Kinetics Buffer diluted into PBS or Tris pH 7.4). […] After a short baseline step in running buffer, the sensors were exposed to varying concentrations (10-300 nM) of rhCD39-ECD-His (R&D Systems) for the association step. Dissociation of the complex was monitored upon exposure of the sensors to running buffer once again. Data was processed using ForteBio Octet software with baseline subtraction, global fit and 1:1 binding model to obtain association and dissociation rates. KD was calculated from the ratio of kd to kₐ.

First: B1
Second: B2
The Kd of the first is 9.9-fold lower: 33.7 nM for the first, 335 nM for the second. The first binds more tightly here.

Compared with B3, B4 is 1.9-fold higher in Kd: 16.4 nM for the first, 31.1 nM for the second. The first binds more tightly here.

First: B5
Second: B6
The Kd of the first is 3.1-fold higher: 409 nM for the first, 131 nM for the second.

Going from B7 to B8, the Kd rises from 54.9 nM to 143 nM (2.6-fold). The first binds more tightly here.

First: B9
Second: B10
The Kd of the first is 11-fold higher: 9.05 nM for the first, 0.811 nM for the second. The second binds more tightly here.

First: B11
Second: B12
The Kd of the first is 13-fold higher: 244 nM for the first, 18.8 nM for the second.

With B13 the Kd was 191 nM.

Going from B1 to B2, the koff rises from 0.00711 s⁻¹ to 0.0914 s⁻¹ (13-fold).

First: B3
Second: B4
The koff of the first is 5.1-fold lower: 0.0105 s⁻¹ for the first, 0.0533 s⁻¹ for the second.

Going from B5 to B6, the koff falls from 0.365 s⁻¹ to 0.023 s⁻¹ (16-fold).

First: B7
Second: B8
The koff of the first is 9.8-fold lower: 0.00644 s⁻¹ for the first, 0.0633 s⁻¹ for the second.

Compared with B9, B10 is 28-fold lower in koff: 0.00815 s⁻¹ for the first, 0.000286 s⁻¹ for the second.

First: B11
Second: B12
The koff of the first is 13-fold higher: 0.0666 s⁻¹ for the first, 0.00526 s⁻¹ for the second.

In the case of B13, the koff is reported as 0.0385 s⁻¹.

B1 and B2 are within 1.5-fold of each other in kon: 211000 M⁻¹ s⁻¹ for the first, 273000 M⁻¹ s⁻¹ for the second.

First: B3
Second: B4
The kon of the first is 2.7-fold lower: 639000 M⁻¹ s⁻¹ for the first, 1.72e+06 M⁻¹ s⁻¹ for the second.

First: B5
Second: B6
The kon of the first is 5.1-fold higher: 893000 M⁻¹ s⁻¹ for the first, 176000 M⁻¹ s⁻¹ for the second.

First: B7
Second: B8
The kon of the first is 3.8-fold lower: 117000 M⁻¹ s⁻¹ for the first, 444000 M⁻¹ s⁻¹ for the second.

Compared with B9, B10 is 2.6-fold lower in kon: 901000 M⁻¹ s⁻¹ for the first, 353000 M⁻¹ s⁻¹ for the second.

B11 and B12 are within 1.5-fold of each other in kon: 273000 M⁻¹ s⁻¹ for the first, 281000 M⁻¹ s⁻¹ for the second.

B13 was tested, and the kon was 202000 M⁻¹ s⁻¹.
